{"source": "paper PMC6791372", "about": "(ACS chemical biology, 2019)", "target": "the molecule itself", "test": "crystal structure", "data": [{"protein": "MetA crystallisation construct (C-terminal residues 297-309 truncated, P257I) (enzyme, E. coli, UniProt P07623 2-296, looked up) PIRVPDELPAVNFLREENVFVMTTSRASGQEIRPLKVLILNLMPKKIETENQFLRLLSNSPLQVDIQLLRIDSRESRNTPAEHLNNFYCNFEDIQDQNFDGLIVTGAPLGLVEFNDVAYWPQIKQVLEWSKDHVTSTLFVCWAVQAALNILYGIPKQTRTEKLSGVYEHHILHPHALLTRGFDDSFLAPHSRYADFPAALIRDYTDLEILAETEEGDAYLFASKDKRIAFVTGHPEYDAQTLAQEFFRDVEAGLDIDVPYNYFPHNDPQNTPRASWRSHGNLLFTNWLNYYVYQI", "values": [{"measurement": "binding result", "result": "binds"}]}]}
